Biological target: T1, GtgA(20–228)^E183Q (Salmonella Typhimurium strain ATCC …, UniProt A0A0F6AZI6 20-228, E183Q)
T1 construct: residues left by TEV cleavage of the His6–GST tag, before the first residue of GtgA; Cloned in pETM30 (TEV-cleavable N-terminal His6 and GST); source: E. coli BL21 PC2, purified (GSH–Sepharose, TEV cleavage, Superdex 75 SEC); not shown: His6, N-terminal, cleaved; GST, N-terminal, cleaved
T1 sequence: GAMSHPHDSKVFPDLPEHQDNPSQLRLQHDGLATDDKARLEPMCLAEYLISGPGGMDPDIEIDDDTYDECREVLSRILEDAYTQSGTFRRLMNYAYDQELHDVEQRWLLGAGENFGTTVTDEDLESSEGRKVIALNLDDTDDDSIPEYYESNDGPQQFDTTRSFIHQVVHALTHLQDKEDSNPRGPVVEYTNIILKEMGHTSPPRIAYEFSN
Test: crystal structure; GtgA(20–228)^E183Q–p65(20–188) complex, 175 μM of each protein mixed immediately prior to crystallization; sitting drop, 20 °C, 0.1 M Tris pH 8.3, 0.5 M LiCl, 32.5% (w/v) PEG 6000; Zn2+-free; single heterodimer in the asymmetric unit
Conditions: both partners purified

B1: p65(20–188) (domain or fragment, murine)
chain: AYVEIIEQPKQRGMRFRYKCEGRSAGSIPGERSTDTTKTHPTIKINGYTGPGTVRISLVTKDPPHRPHPHELVGKDCRDGYYEADLCPDRSIHSFQNLGIQCVKKRDLEQAISQRIQTNNNPFHVPIEEQRGDYDLNAVRLCFQVTVRDPAGRPLLLTPVLSHPIFDNRA
notes: single alanine left by ULP1 cleavage of the His6–SUMO tag, before the first residue of p65; NF-κB subunit p65 (RelA), murine, amplified from RAW264.7 cDNA, N-terminal domain residues 20–188; Cloned in pE-SUMO (LifeSensors); also called p65 NTD; p65 N-terminal domain; source: E. coli BL21 PC2, purified (Ni-NTA, ULP1 cleavage, Superdex 75 SEC); not shown: His6, N-terminal, cleaved; SUMO, …
binding result: binds

Reference: publication PMC6166728, “Structure–function analyses of the bacterial zinc metalloprotease effector protein GtgA uncover key residues required for deactivating NF-κB” (The Journal of Biological Chemistry, 2018)
